These results are taken from article PMC7171158.

Broadly, the Kd is the constant that tells how readily two partners part at equilibrium. High values mean weaker binding, low ones tighter binding.

The target in the test is NusA-AR2^D443C labeled with fluorescein-5-maleimide (E. coli) (UniProt P0AFF6). As to the kind of experiment: fluorescence polarisation; fluorescence anisotropy; 25 nM fluorescein-labeled NusA-AR2^D443C with increasing unlabeled protein; 25 °C; 50 mM Na-P pH 6.5, 100 mM NaCl, 150 mM glucose, 5 mM DTT, 0.05% Tween; two-state binding model.

B1: antiterminator protein Q from phage λ (λQ), full length (natural protein)
chain: MRLESVAKFHSPKSPMMSDSPRATASDSLSGTDVMAAMGMAQSQAGFGMAAFCGKHELSQNDKQKAINYLMQFAHKVSGKYRGVAKLEGNTKAKVLQVLATFAYADYCRSAATPGARCRDCHGTGRAVDIAKTELWGRVVEKECGRCKGVGYSRMPASAAYRAVTMLIPNLTQPTWSRTVKPLYDALVVQCHKEESIADNILNAVTR
In the case of B1, the Kd was 268 µM.

B2: λQ deletion variant lacking 36 residues at the N-terminus (λQ^Δ36) (domain or fragment)
chain: AMGMAQSQAGFGMAAFCGKHELSQNDKQKAINYLMQFAHKVSGKYRGVAKLEGNTKAKVLQVLATFAYADYCRSAATPGARCRDCHGTGRAVDIAKTELWGRVVEKECGRCKGVGYSRMPASAAYRAVTMLIPNLTQPTWSRTVKPLYDALVVQCHKEESIADNILNAVTR
With B2, the Kd amounted to 271 µM.
